Test results taken from US20260159603A1 (BEAM THERAPEUTICS, published 2026).

Experiments:
[1] = molecular target: T1, biotinylated human CD5-HIS (human, UniProt P06127 25-372, biotinylated); assay: BLI; KD on human CD5 divided by KD on cynomolgus CD5
T1 construct: Loaded onto streptavidin Octet pins; also called huCD5; SA-human CD5; not shown: HIS tag
T1 sequence (looked up): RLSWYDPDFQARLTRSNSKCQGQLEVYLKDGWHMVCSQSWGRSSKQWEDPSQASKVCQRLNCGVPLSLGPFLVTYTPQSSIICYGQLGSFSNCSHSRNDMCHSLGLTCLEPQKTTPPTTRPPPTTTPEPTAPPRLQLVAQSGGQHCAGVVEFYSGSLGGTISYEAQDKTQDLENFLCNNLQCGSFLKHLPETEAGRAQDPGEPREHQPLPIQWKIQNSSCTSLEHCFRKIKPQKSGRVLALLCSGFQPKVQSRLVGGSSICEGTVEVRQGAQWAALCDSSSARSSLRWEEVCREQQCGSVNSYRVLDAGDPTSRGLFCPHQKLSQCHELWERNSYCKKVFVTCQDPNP

[2] = molecular target: T1, biotinylated human CD5-HIS; assay: BLI (Octet), biotinylated CD5-HIS on streptavidin pins
[3] = molecular target: T2, biotinylated cynomolgus CD5-HIS (cynomolgus); assay: as above
T2 construct: Loaded onto streptavidin Octet pins; also called CynoCD5; SA-Cyno CD5

[4] = molecular target: T3, cynomolgus CD5 on transfected HEK293T cells (cynomolgus (Table 8B); rhesus macaque …); assay: flow cytometry, periplasmic extract on transfected HEK293T cells
T3 construct: whole, on cells; also called Cynomolgus CD5 Cells; rhesus macaque (Macaca mulatta) CD5

[5] = molecular target: T4, human CD5 on transfected HEK293T cells (human, UniProt P06127 25-495); assay: as above
T4 construct: whole, on cells; also called huCD5; Human CD5 Cells
T4 sequence (looked up): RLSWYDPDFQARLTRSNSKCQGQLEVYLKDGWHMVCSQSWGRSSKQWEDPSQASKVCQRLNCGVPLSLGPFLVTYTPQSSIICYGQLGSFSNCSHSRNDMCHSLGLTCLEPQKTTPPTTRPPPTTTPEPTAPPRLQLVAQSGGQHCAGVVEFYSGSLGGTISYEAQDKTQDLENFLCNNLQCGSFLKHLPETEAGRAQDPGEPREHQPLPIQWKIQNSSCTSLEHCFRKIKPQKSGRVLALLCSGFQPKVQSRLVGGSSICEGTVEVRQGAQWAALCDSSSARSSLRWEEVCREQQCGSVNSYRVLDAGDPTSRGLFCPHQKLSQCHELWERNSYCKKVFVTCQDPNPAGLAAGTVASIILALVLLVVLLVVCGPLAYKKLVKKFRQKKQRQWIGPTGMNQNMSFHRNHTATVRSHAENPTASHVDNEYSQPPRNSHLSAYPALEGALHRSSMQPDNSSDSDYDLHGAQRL

[6] = molecular target: T1, biotinylated human CD5-HIS; assay: BLI (Octet), biotinylated CD5-HIS on streptavidin pins, periplasmic extract, off-rate
[7] = molecular target: T2, biotinylated cynomolgus CD5-HIS; assay: as above

B1: ABTx316 (VHH)
VHH: QVQLVESGGGLVQAGGSLRLSCAASGGTVSSYAMGWFRQAPGKEREFVAVISWSGGRTYYADSVKGRFTISRDNAKNTVNLQMNSLKPEDTAVYYCAADPWTSDSDYERLTMYDYWGQGTQVTVSS
notes: VHH in periplasmic extract of the phage display clone; also called clone 525; not shown: c-myc tag of the phagemid construct (detected with anti-c-myc 9E10)
For B1, the “Hu/Cyno KD” value [1] was 0.9, the Kd [2] was 1.4 nM and the koff [2] was 0.00015 s⁻¹. For the same binder, the kon [2] was 110000 M⁻¹ s⁻¹, the Kd [3] was 1.6 nM and the koff [3] was 0.00021 s⁻¹. The kon [3] was 130000 M⁻¹ s⁻¹, the “percent of cells showing binding” value [4] was 81.7% and the “percent of cells showing binding” value [5] was 85.8%. The koff [6] was 0.0054 s⁻¹ and the koff [7] was 0.0343 s⁻¹.

B2: ABTx318 (VHH)
VHH: QVQLQESGGGSVQAGGSLRLSCAASGRAFSAYAMGWFRQAPGKEREFVAAINWNGDTALRWNGFATRYADSVKGRFTISRVIAKNTVNLQMNSLKPEDTAVYYCAADTVVSGSYYLAARAEDYEYWGQGTQVTVSS
notes: VHH in periplasmic extract of the phage display clone; also called clone 333; not shown: c-myc tag of the phagemid construct (detected with anti-c-myc 9E10)
B2 was tested, and the “Hu/Cyno KD” value [1] was 1, the Kd [2] was 2.5 nM and the koff [2] was 0.00016 s⁻¹. The kon [2] was 65000 M⁻¹ s⁻¹, the Kd [3] was 2.4 nM and the koff [3] was 0.00022 s⁻¹. For the same binder, the kon [3] was 91000 M⁻¹ s⁻¹, the “percent of cells showing binding” value [4] was 67.1% and the “percent of cells showing binding” value [5] was 84.9%. For the same binder, the koff [6] was 0.0138 s⁻¹ and the koff [7] was 0.0546 s⁻¹.

B3: ABTx319 (VHH)
VHH: QVQLVESGGGLVQPGGSLRLSCAASGFTFSMYSMSWVRQAPGKRLEWVSSISTGARDTAYADSVKGRFTISRDNADNTLYLHMNNLKPEDTAVYYCANGDLRYGPDGYDYRGQGTQVTVSS
notes: VHH in periplasmic extract of the phage display clone; also called clone 917; not shown: c-myc tag of the phagemid construct (detected with anti-c-myc 9E10)
With B3 the “Hu/Cyno KD” value [1] was 0.8, the Kd [2] was 1.8 nM and the koff [2] was 0.00013 s⁻¹. It also gave a kon [2] of 72000 M⁻¹ s⁻¹, a Kd [3] of 2.2 nM and a koff [3] of 0.0002 s⁻¹. The kon [3] was 94000 M⁻¹ s⁻¹, the “percent of cells showing binding” value [4] was 62.6% and the “percent of cells showing binding” value [5] was 74.8%. It also gave a koff [6] of 0.0116 s⁻¹ and a koff [7] of 0.0531 s⁻¹.

B4: ABTx320 (VHH)
VHH: QVQLVESGGGLVQAGGSLRLSCAASGPAFSSSGMGWFRQAPGKAREFVASMDWTGGSTYYGDSVKGRFTVSRDNAKMTVHLQMNSLRPEDTAVYYCARGTSGVAAVNLRGFFSWGPGTQVTVSS
notes: VHH in periplasmic extract of the phage display clone; also called clone 157; not shown: c-myc tag of the phagemid construct (detected with anti-c-myc 9E10)
For B4, the “Hu/Cyno KD” value [1] was 1.1, the Kd [2] was 2.8 nM and the koff [2] was 0.00019 s⁻¹. It also gave a kon [2] of 69000 M⁻¹ s⁻¹, a Kd [3] of 2.6 nM and a koff [3] of 0.0002 s⁻¹. The kon [3] was 76000 M⁻¹ s⁻¹, the “percent of cells showing binding” value [4] was 77.7% and the “percent of cells showing binding” value [5] was 80.3%. For the same binder, the koff [6] was 0.00137 s⁻¹ and the koff [7] was 0.000757 s⁻¹.

B5: ABTx321 (VHH)
VHH: QLQLVESGGGLVQPGESLRLSCVVSGDIFSFVGWGWYRQAPGKQREVVAQISTGGLTNYADSVKGRFAISRDNAKRTVYLQMNSLKFEDTAVYYCNVPGHPWGQGTQVTVSS
notes: VHH in periplasmic extract of the phage display clone; also called clone 1043; not shown: c-myc tag of the phagemid construct (detected with anti-c-myc 9E10)
B5 was tested, and the “Hu/Cyno KD” value [1] was 0.6, the Kd [2] was 0.23 nM and the koff [2] was 5.2e-05 s⁻¹. It also gave a kon [2] of 220000 M⁻¹ s⁻¹, a Kd [3] of 0.37 nM and a koff [3] of 8.8e-05 s⁻¹. For the same binder, the kon [3] was 240000 M⁻¹ s⁻¹, the “percent of cells showing binding” value [4] was 87.7% and the “percent of cells showing binding” value [5] was 84.9%. For the same binder, the koff [6] was 0.0077 s⁻¹ and the koff [7] was 0.0136 s⁻¹.

B6: ABTx328 (VHH)
VHH: QVQLVESGGGLVQPGESLRLSCVVSGDIFSFIGWGWYRQAPGKQRELVAQINTGGLTDYADSVKGRFTISRDNAKRTVYLQMNSLKFEDTAVYYCNFPGHSWGQGTQVTVSS
notes: VHH in periplasmic extract of the phage display clone; also called clone 1050; not shown: c-myc tag of the phagemid construct (detected with anti-c-myc 9E10)
B6 was tested, and the “Hu/Cyno KD” value [1] was 0.4, the Kd [2] was 0.36 nM and the koff [2] was 9.2e-05 s⁻¹. For the same binder, the kon [2] was 260000 M⁻¹ s⁻¹, the Kd [3] was 0.93 nM and the koff [3] was 0.00018 s⁻¹. For the same binder, the kon [3] was 190000 M⁻¹ s⁻¹, the “percent of cells showing binding” value [4] was 40.7% and the “percent of cells showing binding” value [5] was 45.4%. The koff [6] was 7.04e-05 s⁻¹ and the koff [7] was 6.34e-05 s⁻¹.

B7: ABTx322 (VHH)
VHH: QLQLVESGGGLVQPGGSLRLSCAASGSDFLVDATTWFRQAPGNQREFVAIMDIGGVTEYADSVKGRFTISRDHTKNTVYLQMNSLKVEDTAVYYCNTRGLWGQGTLVTVSS
notes: VHH in periplasmic extract of the phage display clone; also called clone 660; not shown: c-myc tag of the phagemid construct (detected with anti-c-myc 9E10)
In the case of B7, the “Hu/Cyno KD” value [1] is reported as 0.9, the Kd [2] is reported as 1 nM and the koff [2] is reported as 0.0001 s⁻¹. It also gave a kon [2] of 95000 M⁻¹ s⁻¹, a Kd [3] of 1.1 nM and a koff [3] of 0.00011 s⁻¹. For the same binder, the kon [3] was 97000 M⁻¹ s⁻¹, the “percent of cells showing binding” value [4] was 82.3% and the “percent of cells showing binding” value [5] was 70.1%. It also gave a koff [6] of 0.000331 s⁻¹ and a koff [7] of 0.0028 s⁻¹.
